Reference: PMC7987177

Experiments:
[1] = biological target: wild-type Aplysia Kv1 voltage-gated potassium channel subunit, full-length (aKv1/FL) (Aplysia)
[2] = biological target: wild-type Aplysia Kv1 voltage-gated potassium channel subunit, full-length (aKv1/FL) (Aplysia); remark: listed apart in the source

Substance: Opto-aKv1/SL/V400D (dominant-negative, short-length Opto-aKv1 subunit: aKv1 N-terminus, VfAu1 LOV domain, aKv1 from the T1 domain on, pore mutation V400D)
- reduction in current density at +80 mV in cerebellar granule cells electroporated with both constructs, after 1.5 hours of blue light [1]: 80%
- suppression of the fast inactivating aKv1/FL whole-cell current in co-transfected CHO cells after 1.5 hours of blue light [2]: 70%
